In the test the target is Phenylalanine hydroxylase from Legionella pneumophila (Legionella pneumophila) (UniProt Q5ZS72). In words: crystal structure.

Regarding “Phenylalanine hydroxylase from Legionella pneumophila (from UniProt Q5ZS72 1-272) (enzyme)”, the stoichiometry N – broadly, a count of units in the complex or per binding partner – is 2.

(Values after paper PMC3821034.)
